Bridge positions count the residues as written; N and C are the ends. Peptide text beside a SMILES is read from it.
Biological target: T1, human TRAIL R2 (Homo sapiens, UniProt O14763)
T1 construct: purchased R&D Systems, Minneapolis, Minn
Assay: AlphaQuest TRAIL R2 receptor binding competition assay (AlphaScreen, biotinylated TRAIL ligand vs TRAIL R2-Fc)
Settings: competition with biotinylated TRAIL ligand; single values and ranges over assays; read-out: binding activity (IC50)
Text: Laser excitation (680 nm) of a photosensitizer in the donor bead generates singlet state oxygen molecules, which react with a chemiluminescer in the acceptor bead to generate a detectable light signal (520-620 nm). Because the singlet O2 molecules have an extremely short half-life (i.e., t ½), a signal is generated only when the donor and acceptor beads are brought into close proximity, by TRAIL binding to the R2 receptor. The presence of unlabeled test peptide that competes with TRAIL for binding to the R2 receptor will prevent this binding, resulting in a measurable decrease in light emission.
Recombinant human TRAIL R2-Fc fusion protein (R&D Systems, Minneapolis, Minn.) is diluted in AlphaQuest® buffer to a concentration of 600 pM, pre-mixed with 1.9 μL Protein A-coated acceptor beads and 1.9 μL streptavidin-coated donor beads (Perkin-Elmer®, Waltham, Mass.), then 2 μL is added to each well of the assay plate. […] The plates are sealed with adhesive sealing film and covered with aluminum foil, centrifuged at 600 rpm for 30 seconds and incubated overnight in the dark. […] The raw data are analyzed using GraphPad Prism® software (La Jolla, Calif.) to calculate IC50 values from a 4-parameter logistic equation.

Row | Molecule | IC50 [nM]
1 | CC[C@H](C)[C@@H]1NC(=O)[C@H](CCCNC(=N)N)NC(=O)[C@H](CC(N)=O)NC(=O)[C@H](CC(=O)O)NC(=O)[C@H](CC(C)C)NC(=O)[C@@H](NC(=O)[C@H](CC(=O)O)NC(C)=O)CSSC[C@@H](C(=O)N[C@H](C(=O)N[C@@H](CCCCN)C(=O)N[C@@H](CC(C)C)C(N)=O)C(C)C)NC(=O)[C@H](CCC(N)=O)NC(=O)[C@H](CCCNC(=N)N)NC(=O)[C@H](CCCNC(=N)N)NC(=O)CNC1=O [SEQ ID NO: 25 monomer] (Ac-DCLDNRIGRRQCVKL-NH2; disulfide 2-12) | ≥ 100000
2 | CC(=O)N[C@@H](Cc1c[nH]c2ccccc12)C(=O)N[C@@H](CC(=O)O)C(=O)N[C@H]1CSSC[C@@H](C(=O)N[C@H](C(=O)N[C@@H](CCCCN)C(N)=O)C(C)C)NC(=O)[C@H](CCC(N)=O)NC(=O)[C@H](CCCNC(=N)N)NC(=O)[C@H](CCCNC(=N)N)NC(=O)CNC(=O)[C@@H]2CCCN2C(=O)[C@H](CCCNC(=N)N)NC(=O)[C@H](CC(=O)O)NC(=O)[C@H](CC(C)C)NC1=O [SEQ ID NO: 22 monomer] (Ac-WDCLDRPGRRQCVK-NH2; disulfide 3-12) | 3550 to 10700

Biological target: T2, Recombinant human TRAIL R2-Fc fusion protein (R&D Systems) (human, UniProt O14763 52-182, limits assumed)
T2 construct: Bought from R&D Systems; held on protein A-coated acceptor beads in the AlphaQuest/AlphaScreen assay; also called TRAIL R2 receptor; R2 receptor; not shown: Fc part of the bought fusion protein
Assay: AlphaQuest competition: displaces biotinylated TRAIL ligand from human TRAIL R2-Fc
Settings: not given
Procedure: The plates are sealed with adhesive sealing film and covered with aluminum foil, centrifuged at 600 rpm for 30 seconds and incubated overnight in the dark. […] The raw data are analyzed using GraphPad Prism® software (La Jolla, Calif.) to calculate IC₅₀ values from a 4-parameter logistic equation.

Row | Molecule | IC50 [nM]
3 | Ac-GGSWDCLDNRIGRRQCVKL-NH2 (disulfide 6-16 (inferred)) [peptide monomer based on the amino acid sequence of SEQ ID NO: 20] | ~303
4 | Ac-WDCLDRPGRRQCVK-NH2 (disulfide 3-12 (inferred); also: DIG linker moiety conjugated, site not given here) [peptide monomer based on the amino acid sequence of SEQ ID NO: 22 conjugated to a DIG linker moiety] | 1200 to 2300
5 | Ac-DCLDNRIGRRQCVKL-NH2 (disulfide 2-12 (inferred)) [peptide monomer based on the amino acid sequence of SEQ ID NO: 25] | ≥ 100000
6 | Ac-WDCLDRPGRRQCVK-NH2 (disulfide 3-12 (inferred); also: homodimer via diglycolic acid (DIG) linker, site not given here) [peptide homodimer based on the monomer amino acid sequence of SEQ ID NO: 22, DIG linker] | 6.2
7 | Ac-WDCLDNRIGRRQCVK-NH2 (disulfide 3-13 (inferred)) [peptide monomer based on the amino acid sequence of SEQ ID NO: 28] | ~80

— US20090131317A1, “COMPOUNDS AND PEPTIDES THAT BIND THE TRAIL RECEPTOR” (AFFYMAX, INC., priority 2007, published 2009)
